The values that follow are results of earlier work, collected in publication PMC4696766.

pKd: −log10 of the molar value. Like-named read-outs stand apart in the source and are kept apart here.

Among the targets are histone H3 1-10 (UniProt P61830); PIWI (Homo sapiens) (UniProt Q96J94); γH2A.X (Homo sapiens) (UniProt P16104); di-γH2A.X (Homo sapiens) (UniProt P16104).
Data set [1] concerns the target Histone H3 (Homo sapiens) (UniProt P68431).
Data set [2] concerns the target Histone H4 (Homo sapiens) (UniProt P62805).
The target of data set [3] is Histone H3 (Arabidopsis thaliana) (UniProt P59226).
The target in data set [4] is Histone H3 (Homo sapiens) (UniProt P68431). This is another data set of the same source.
The target is the same in data set [5]. The source holds these as a separate data set.
Data set [6] concerns the target histone H3 H3K9me3 peptide (UniProt P61830).
The target of data set [7] is Histone H3 (Drosophila melanogaster) (UniProt P02299).
In data set [8] the target is histone H3 H3K9me3 peptide (UniProt P61830). This is another data set of the same source.
Data set [9] deals with Histone H3 (Homo sapiens) (UniProt P68431). The source holds these as a separate data set.
In data set [10] the target is histone H3 H3K9me2 peptide (UniProt P61830).
For data set [11] the target is unchanged. This is another data set of the same source.
Data set [12] deals with Histone H3 (Arabidopsis thaliana) (UniProt P59226). The source holds these as a separate data set.
The target in data set [13] is histone H4 H4K20me3 peptide (UniProt P62805).
Data set [14] addresses histone H3 H3K4me3 peptide (UniProt P61830).
The target is the same in data set [15]. The source holds these as a separate data set.
The target of data set [16] is Histone H3 (Homo sapiens) (UniProt P68431). This is another data set of the same source.
For data set [17] the target is unchanged. The source holds these as a separate data set.
Data set [18] addresses histone H4 H4K20me2 peptide (UniProt P62805).
Data set [19] deals with histone H3 H3K4me3 peptide (UniProt P61830). This is another data set of the same source.
In data set [20] the target is histone H3 H3K4me2 peptide (UniProt P61830).
Data set [21] has as its target Histone H3 (Homo sapiens) (UniProt P68431). This is another data set of the same source.
Data set [22] has the same target. This is another data set of the same source.
The target of data set [23] is Histone H4 (Homo sapiens) (UniProt P62805). Nature of the data set: NMR.
Data set [24] deals with Histone H3 (Homo sapiens) (UniProt P68431). The source holds these as a separate data set.

JMJD2A tandem Tudor, sequence (O75164 897-1011): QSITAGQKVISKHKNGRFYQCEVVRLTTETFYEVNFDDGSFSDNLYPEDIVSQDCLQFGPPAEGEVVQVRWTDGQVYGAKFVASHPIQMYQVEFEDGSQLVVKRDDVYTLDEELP
MCPH1 tandem BRCT domains, sequence (Q8NEM0 640-833): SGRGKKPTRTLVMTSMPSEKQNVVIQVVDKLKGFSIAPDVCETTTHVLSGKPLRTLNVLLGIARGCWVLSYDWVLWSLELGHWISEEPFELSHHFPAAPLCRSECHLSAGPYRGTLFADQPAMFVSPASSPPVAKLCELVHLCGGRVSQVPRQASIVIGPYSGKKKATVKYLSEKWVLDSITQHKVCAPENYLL
UHRF1 PHD finger, sequence (Q96T88 310-366): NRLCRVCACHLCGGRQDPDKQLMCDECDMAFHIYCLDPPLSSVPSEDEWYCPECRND
G9a ankyrin repeats, sequence (Q96KQ7 649-879): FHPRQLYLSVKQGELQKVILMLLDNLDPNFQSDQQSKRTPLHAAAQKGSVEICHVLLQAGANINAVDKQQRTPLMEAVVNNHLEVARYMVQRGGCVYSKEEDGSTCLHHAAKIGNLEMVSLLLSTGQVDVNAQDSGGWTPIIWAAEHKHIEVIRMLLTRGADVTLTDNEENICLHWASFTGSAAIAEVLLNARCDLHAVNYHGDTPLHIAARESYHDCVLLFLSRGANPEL
HP1 chromodomain, sequence (P05205 24-82): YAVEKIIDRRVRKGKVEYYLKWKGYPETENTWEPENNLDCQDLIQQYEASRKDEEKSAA
BHC80 PHD finger, sequence (Q96BD5 whole entry): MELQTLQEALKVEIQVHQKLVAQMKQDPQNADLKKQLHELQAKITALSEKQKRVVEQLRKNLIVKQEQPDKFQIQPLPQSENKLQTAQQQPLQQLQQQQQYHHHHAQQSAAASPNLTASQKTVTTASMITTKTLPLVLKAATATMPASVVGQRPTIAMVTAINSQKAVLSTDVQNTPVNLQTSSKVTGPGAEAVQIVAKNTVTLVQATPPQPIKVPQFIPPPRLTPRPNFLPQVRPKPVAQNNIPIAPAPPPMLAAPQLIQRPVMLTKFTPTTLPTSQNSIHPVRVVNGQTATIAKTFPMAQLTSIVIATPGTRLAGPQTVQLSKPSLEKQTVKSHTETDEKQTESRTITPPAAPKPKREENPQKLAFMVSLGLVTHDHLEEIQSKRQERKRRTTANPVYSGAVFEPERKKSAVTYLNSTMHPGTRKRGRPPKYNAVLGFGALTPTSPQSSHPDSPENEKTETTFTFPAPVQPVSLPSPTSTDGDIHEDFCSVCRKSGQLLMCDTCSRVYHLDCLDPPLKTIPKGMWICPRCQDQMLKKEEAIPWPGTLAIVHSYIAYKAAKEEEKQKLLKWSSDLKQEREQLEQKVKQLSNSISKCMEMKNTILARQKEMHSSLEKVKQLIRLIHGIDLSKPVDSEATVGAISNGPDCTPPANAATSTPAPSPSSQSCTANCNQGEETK
14-3-3ζ, sequence (P63104 whole entry): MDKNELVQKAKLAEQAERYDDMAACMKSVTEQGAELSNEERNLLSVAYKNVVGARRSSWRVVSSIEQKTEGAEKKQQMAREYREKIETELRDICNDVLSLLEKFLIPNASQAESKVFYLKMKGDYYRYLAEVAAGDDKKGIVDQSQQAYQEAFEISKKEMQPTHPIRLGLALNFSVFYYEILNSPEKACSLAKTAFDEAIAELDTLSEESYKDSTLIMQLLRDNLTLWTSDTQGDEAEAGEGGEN
CHD1 tandem chromodomains, sequence (O14646 272-452): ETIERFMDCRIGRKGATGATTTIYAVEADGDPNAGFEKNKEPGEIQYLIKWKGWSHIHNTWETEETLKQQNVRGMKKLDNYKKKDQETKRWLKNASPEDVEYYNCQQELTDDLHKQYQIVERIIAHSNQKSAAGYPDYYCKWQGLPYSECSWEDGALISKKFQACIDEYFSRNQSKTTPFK
P/CAF bromodomain, sequence (Q92831 720-830): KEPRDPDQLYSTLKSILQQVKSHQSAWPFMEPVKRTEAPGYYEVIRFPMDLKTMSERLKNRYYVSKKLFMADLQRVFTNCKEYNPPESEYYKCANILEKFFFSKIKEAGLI
UHRF1 tandem Tudor domain, sequence (Q96T88 133-283): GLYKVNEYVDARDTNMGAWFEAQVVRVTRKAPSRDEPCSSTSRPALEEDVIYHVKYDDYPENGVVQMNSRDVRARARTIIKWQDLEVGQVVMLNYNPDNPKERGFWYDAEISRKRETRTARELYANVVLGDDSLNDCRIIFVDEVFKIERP
SHH1 tandem Tudor, sequence (Q9XI47 138-244): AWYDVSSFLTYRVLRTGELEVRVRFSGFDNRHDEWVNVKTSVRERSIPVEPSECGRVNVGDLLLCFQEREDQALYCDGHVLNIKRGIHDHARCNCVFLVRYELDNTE
SHH1 tandem Tudor domains, sequence (Q9XI47 138-244): as above
DPF3 tandem PHD fingers, sequence (Q92784 259-366): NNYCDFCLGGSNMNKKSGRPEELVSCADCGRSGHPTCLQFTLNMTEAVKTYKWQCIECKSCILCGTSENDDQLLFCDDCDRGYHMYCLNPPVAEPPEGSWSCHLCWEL
SND1 extended Tudor domain, sequence (Q7KZF4 650-910): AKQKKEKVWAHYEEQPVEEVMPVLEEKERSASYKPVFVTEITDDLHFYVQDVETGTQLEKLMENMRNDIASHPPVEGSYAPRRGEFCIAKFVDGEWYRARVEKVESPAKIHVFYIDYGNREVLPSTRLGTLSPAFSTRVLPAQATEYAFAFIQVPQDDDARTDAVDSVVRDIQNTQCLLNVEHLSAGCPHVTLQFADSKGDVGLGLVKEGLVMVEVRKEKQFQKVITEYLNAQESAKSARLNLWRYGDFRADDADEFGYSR
UHRF1 tandem Tudor-PHD cassette, sequence (Q96T88 133-366): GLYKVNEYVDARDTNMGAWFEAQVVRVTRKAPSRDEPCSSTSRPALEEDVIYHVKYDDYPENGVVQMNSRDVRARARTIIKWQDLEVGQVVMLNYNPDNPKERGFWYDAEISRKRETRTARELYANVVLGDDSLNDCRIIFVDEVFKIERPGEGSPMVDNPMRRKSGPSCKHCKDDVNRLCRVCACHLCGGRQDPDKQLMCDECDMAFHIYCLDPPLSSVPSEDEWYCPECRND
53BP1 tandem Tudor, sequence (Q12888 1484-1603): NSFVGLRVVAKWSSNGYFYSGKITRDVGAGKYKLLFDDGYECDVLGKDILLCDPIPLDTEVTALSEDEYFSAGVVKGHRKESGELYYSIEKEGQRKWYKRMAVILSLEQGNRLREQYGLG
53BP1 tandem Tudor domains, sequence (Q12888 1484-1603): as above

On to BHC80 PHD finger (from UniProt Q96BD5), for which the pKd (in data set [1]; with histone H3 1-10) was 4.52 each time. With “53BP1 tandem Tudor domains (from UniProt Q12888)”, in data set [2], the pKd was 4.71. As to “SHH1 tandem Tudor domains (from UniProt Q9XI47)”, the negative logarithm of the Kd (pKd) in data set [3] is 5.72.

14-3-3ζ (from UniProt P63104): the pKd is 4.11 in [4] and 4.64 in data set [5]. In the case of HP1 chromodomain (from UniProt P05205), the negative logarithm of the Kd (pKd) in [6] and in [7] was 5.60 each time. Consider ATRX ADD (from UniProt P46100), for which, in [8], the negative-log Kd (pKd) was 6.30. Turning to “DPF3 tandem PHD fingers (from UniProt Q92784)”, the pKd in data set [9] was 6.30.

In the case of SHH1 tandem Tudor (from UniProt Q9XI47), in data set [10], the pKd is 5.72.

With “G9a ankyrin repeats (from UniProt Q96KQ7)”, the pKd in [11] and in [12] was 5.22 each time. Consider “JMJD2A tandem Tudor (from UniProt O75164)”, for which the pKd was 6.40 in data set [13] and 6.30 in data set [14]. In the case of “SND1 extended Tudor domain (from UniProt Q7KZF4)”, the negative logarithm of the Kd (pKd) in the data set with PIWI (Homo sapiens) is 5.00.

As to “CHD1 tandem chromodomains (from UniProt O14646)”, the pKd in data set [15] and in [16] was 5.30 each time. Take “UHRF1 tandem Tudor-PHD cassette (from UniProt Q96T88)”: the pKd in data set [17] is 6.43. On to “53BP1 tandem Tudor (from UniProt Q12888)”, for which, in [18], the pKd is 4.71. For BPTF PHD finger (from UniProt Q12830), the values for the pKd in data set [19] and in [20] were 5.57 and 5.30, respectively.

“MCPH1 tandem BRCT domains (from UniProt Q8NEM0)”: the pKd in the data set with γH2A.X (Homo sapiens) is 6.15; in the data set with di-γH2A.X (Homo sapiens), 5.36. Consider UHRF1 PHD finger (from UniProt Q96T88), for which the pKd in data set [21] was 5.83; in data set [22], 5.68.

Regarding P/CAF bromodomain (from UniProt Q92831), the pKd in data set [23] was 3.46. In the case of “UHRF1 tandem Tudor domain (from UniProt Q96T88)”, the pKd in data set [24] is 5.76.
